Each block holds one molecule with its values, some of them ahead of it.
Key:
[1] = molecular target: human αv-integrins (human) (UniProt P06756); experiment: cell-based or functional assay
[2] = molecular target: human αv-integrins (human), P06756; experiment: cell-based or functional assay
Chain of human αv-integrins (human), P06756 (P06756 31-1048): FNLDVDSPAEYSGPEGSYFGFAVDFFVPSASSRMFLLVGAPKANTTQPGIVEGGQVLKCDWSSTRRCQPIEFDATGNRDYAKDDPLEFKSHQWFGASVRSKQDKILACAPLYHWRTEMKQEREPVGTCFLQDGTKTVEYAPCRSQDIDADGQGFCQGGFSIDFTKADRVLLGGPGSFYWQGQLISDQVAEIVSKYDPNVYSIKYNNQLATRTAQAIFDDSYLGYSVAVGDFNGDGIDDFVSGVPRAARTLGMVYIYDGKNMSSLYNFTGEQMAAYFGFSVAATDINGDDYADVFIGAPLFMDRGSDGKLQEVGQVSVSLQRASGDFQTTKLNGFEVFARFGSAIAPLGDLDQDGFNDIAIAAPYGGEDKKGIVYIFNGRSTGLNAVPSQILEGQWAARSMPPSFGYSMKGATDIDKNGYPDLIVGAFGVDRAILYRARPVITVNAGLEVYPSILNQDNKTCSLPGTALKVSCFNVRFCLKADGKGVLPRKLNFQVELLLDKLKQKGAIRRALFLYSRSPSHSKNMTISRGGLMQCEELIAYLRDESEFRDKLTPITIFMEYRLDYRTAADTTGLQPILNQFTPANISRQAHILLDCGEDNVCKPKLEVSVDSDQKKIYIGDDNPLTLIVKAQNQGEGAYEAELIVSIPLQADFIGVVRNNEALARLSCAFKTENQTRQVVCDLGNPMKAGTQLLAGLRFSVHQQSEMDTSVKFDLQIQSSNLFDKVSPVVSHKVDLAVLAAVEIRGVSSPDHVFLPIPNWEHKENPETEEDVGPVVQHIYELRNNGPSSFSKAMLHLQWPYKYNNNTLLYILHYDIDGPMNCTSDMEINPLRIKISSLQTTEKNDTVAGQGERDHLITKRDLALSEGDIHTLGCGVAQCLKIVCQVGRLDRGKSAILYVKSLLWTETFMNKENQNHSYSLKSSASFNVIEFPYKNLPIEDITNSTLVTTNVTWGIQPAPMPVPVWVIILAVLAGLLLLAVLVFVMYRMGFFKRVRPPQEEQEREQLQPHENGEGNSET

Chain of human αv-integrins (human) (P06756 31-1048): as above

- EC50, blocking of VEGF-induced migration of human endothelial cells on vitronectin [1]: 50 nM
- EC50, blocking of tumor cell adhesions [1]: 0.1 to 50 nM
- EC50, inhibition of human endothelial cell adhesion to vitronectin [1]: 10 nM
- IC50, growth of HUVEC on vitronectin (Alamar Blue) [1]: 4 ng/mL
Molecule: DI-17E6 (antibody)

- IC50, growth of HUVEC on vitronectin (Alamar Blue) [2]: 5 ng/mL
B1: mouse mAb 17E6 (antibody, mouse IgG1, V domains shown)
VH: EPKSSDKTHTCPPCP
VL: WGQGTTVTVSS

— patent US20100254977A1
